Binding result and Kd data for 2 molecules are collected here from patent US20250333514A1 (CDR LIFE, published 2025).

Numbering of substitutions follows the chain as printed.

Test [1] deals with HLA-A*02:01 loaded with PRAME peptide G8R (human, pMHC ligand was biotinylated for capture (Example 5); site or tag of biotinylation not disclosed). The test can be described thus: SPR (Biacore 8K), pMHC captured, Fab-scFv analyte. As for the experimental part: (§1) Recombinantly produced hits in Fab-scFv format, as described in Example 4, were evaluated for their ability to bind HLA-A*02:01/PRAME antigen. Binding characterization was performed by surface plasmon resonance (SPR) using a Biacore™ 8k (Cytiva) device. Briefly, 3000 RU of Biotin CAPture reagent (Cytiva) was immobilized on a Series S Sensor Chip CAP (Cytiva) and the biotinylated ligand HLA-A*02:01/PRAME (SEQ ID NO: 68) was diluted in HPS-EP+ running buffer (TEKNOVA) and captured for 300 s at a flow rate of 2 μL/min at flow cell 2 resulting in a ligand capture level of >100 RU. Subsequently, at least three consecutive analyte injections were performed at suitable concentrations applying the single-cycle-kinetics mode at a flow rate of 30 μL/min with an association time of 90 s and the dissociation time set to >400 s. The chip surface was regenerated according to the manufacturer's instructions. After reference flow cell signal and blank injections subtraction, the data was fit to a 1:1 Langmuir binding model to determine the association rate constant kₐ and dissociation rate constant kd and calculate the equilibrium dissociation constant KD (kd/kₐ), also denoted as affinity, using the Biacore™ Insight Evaluation software.
(§2) The molecular recognition profile of monovalent (Fab-scFv) antigen binding molecules M3076 and M3287 for HLA-A*02:01/PRAME binding (equivalent bivalent (Fab-(scFv)₂) antigen binding molecules are M3167 and M3292, respectively) were determined by SPR measurements with HLA-A*02:01 complexes loaded with PRAME peptide or peptides containing a single amino acid substitution to alanine, arginine or aspartic acid. The kinetic parameters for each HLA-A*02:01 complex loaded with a peptide was determined by SPR, according to the previously described method in Example 5.

Test [2] addresses HLA-A*02:01 loaded with PRAME peptide L9R (human, pMHC ligand was biotinylated for capture (Example 5); site or tag of biotinylation not disclosed). As to the kind of experiment: SPR (Biacore 8K), pMHC captured, Fab-scFv analyte. As for the experimental part:
as §1, §2

The target in test [3] is HLA-A*02:01 loaded with PRAME peptide L6R (human, Non-covalent three-chain complex; biotinylated for capture on the chip, site or tag of biotinylation not stated.). The test can be described thus: SPR (Biacore 8K), pMHC captured, Fab-scFv analyte. As to the method: as §1, §2
For test [4], the target named is HLA-A*02:01 loaded with PRAME peptide L2D (human, pMHC ligand was biotinylated for capture (Example 5); site or tag of biotinylation not disclosed). As to the kind of experiment: SPR (Biacore 8K), pMHC captured, Fab-scFv analyte. As to the method: as §1, §2
In test [5] the target is HLA-A*02:01 loaded with PRAME peptide L9D (human, Complex was biotinylated for capture on the SPR chip; site or tag of biotinylation not disclosed and not in the letters.). The test can be described thus: SPR (Biacore 8K), pMHC captured, Fab-scFv analyte. As for the experimental part:
as §1, §2

The target in test [6] is HLA-A*02:01 loaded with PRAME peptide Q4D (human, pMHC ligand was biotinylated for capture (Example 5); site or tag of biotinylation not disclosed). The test can be described thus: SPR (Biacore 8K), pMHC captured, Fab-scFv analyte. As for the experimental part:
as §1, §2

Test [7] deals with HLA-A*02:01 loaded with PRAME peptide I7D (human, Complex was biotinylated for capture on the SPR chip; site or tag of biotinylation not disclosed and not in the letters.). The test can be described thus: SPR (Biacore 8K), pMHC captured, Fab-scFv analyte. As for the experimental part: as §1, §2
For test [8], the target named is HLA-A*02:01 loaded with PRAME peptide L3D (human, pMHC ligand was biotinylated for capture (Example 5); site or tag of biotinylation not disclosed). The test can be described thus: SPR (Biacore 8K), pMHC captured, Fab-scFv analyte. As to the method:
as §1, §2

The target in test [9] is HLA-A*02:01 loaded with PRAME peptide H5D (human, pMHC ligand was biotinylated for capture (Example 5); site or tag of biotinylation not disclosed). The test can be described thus: SPR (Biacore 8K), pMHC captured, Fab-scFv analyte. As for the experimental part:
as §1, §2

Test [10] deals with HLA-A*02:01 loaded with PRAME peptide G8D (human, Complex was biotinylated for capture on the SPR chip; site or tag of biotinylation not disclosed and not in the letters.). As to the kind of experiment: SPR (Biacore 8K), pMHC captured, Fab-scFv analyte. As for the experimental part:
as §1, §2

The target of test [11] is HLA-A*02:01 loaded with PRAME peptide L6D (human, Complex was biotinylated for capture on the SPR chip; site or tag of biotinylation not disclosed and not in the letters.). The test can be described thus: SPR (Biacore 8K), pMHC captured, Fab-scFv analyte. As to the method: as §1, §2
The target in test [12] is HLA-A*02:01 loaded with PRAME peptide S1D (human, pMHC ligand was biotinylated for capture (Example 5); site or tag of biotinylation not disclosed). The test can be described thus: SPR (Biacore 8K), pMHC captured, Fab-scFv analyte. As to the method: as §1, §2
The target of test [13] is T1, HLA-A*02:01/PRAME antigen (recombinant, … on HLA-A*02:01) (human, Complex biotinylated for SPR capture; site of biotin and any tag not stated, not in the letters.).
T1 construct: also called PRAME target; pMHC
The test can be described thus: SPR (Biacore 8K), pMHC captured, Fab-scFv analyte. As to the method: as §1, §2

In test [14] the target is T1, HLA-A*02:01/PRAME antigen (recombinant, …). As to the kind of experiment: SPR (Biacore 8K), biotinylated pMHC captured, Fab-scFv analyte, single-cycle kinetics, 1:1 fit. As for the experimental part:
as §1

B1: M3076 (bispecific antibody)
heavy: EVQLVESGGGLVQPGGSLRLSCAASGFTFSTYAMNWVRQAPGKGLEWVGRIRSKYNNYATYYADSVKGRFTISRDDSKNTLYLQMNSLRAEDTAVYYCVRHGNFGDSYVSWFAYWGQGTLVTVSSASTKGPSVFPLAPSSKSTSGGTAALGCLVKDYFPEPVTVSWNSGALTSGVHTFPAVLQSSGLYSLSSVVTVPSSSLGTQTYICNVNHKPSNTKVDKKVEPKSCGGGGSDIQMTQSPSSLSASVGDRVTITCRSSQSVYNNLLGWYQQKPGKAPKLLIYSASTLASGVPSRFSGSGSGTDFTLTISSLQPEDFATYYCQGTYYNGDWYYPFGCGTKVEIKGGGGSGGGGSGGGGSGGGGSQVQLVESGGGSVQPGRSLRLSCAASGFDFSTYGVSWVRQAPGKCLEWIGYIDPVYGSTHYADSVKGRFTISRDNSKNTLYLQMNSLRAEDTASYYCVRDLYAGSSGYYMIYSLWGQGTSVTVSS
light: QAVVTQEPSLTVSPGGTVTLTCGSSTGAVTTSNYANWVQQKPGKSPRGLIGGTNKRAPGVPARFSGSLLGGKAALTISGAQPEDEADYYCALWYSNHWVFGGGTKLTVLGQPKAAPSVTLFPPSSEELQANKATLVCLISDFYPGAVTVAWKADSSPVKAGVETTTPSKQSNNKYAASSYLSLTPEQWKSHRSYSCQVTHEGSTVEKTVAPTECS
notes: Humanized variant of M2638, monovalent Fab-scFv; bivalent equivalent is M3167
On to B1, for which the binding result in test [1], in [3], in [4], in [7], in test [10] and in [11] was “no binding” in each case. The Kd in test [2] was 1.4 nM; in [5], 0.83 nM; in test [6] it was 0.34 nM; in test [8], 0.09 nM; in test [9], 0.44 nM; in [12], 0.06 nM. For the same molecule, the Kd in test [13] came to 0.08 nM; in test [14] it was 0.07 nM.

B2: M3287 (bispecific antibody)
heavy: B1 heavy with F317S, N328T, M473V
light: B1 light
notes: Humanized variant of M2638, monovalent Fab-scFv; bivalent equivalent is M3292
Consider B2, for which the binding result in test [1], in test [3], in test [4], in test [7], in test [10] and in test [11] was “no binding” each time. Besides, the dissociation constant (Kd) in test [2] is 6.1 nM; in test [5], 2.7 nM; in test [6], 3.4 nM; in test [8], 0.63 nM; in test [9] it was 4.6 nM; in [12], 0.53 nM. Further, the dissociation constant (Kd) in test [13] and in [14] was 0.57 nM in each case.
